Data published in patent US20040059519A1.
Where “and” joins values, the source holds several entries; their conditions need not be identical. Identical values can stand only once. One block for each substance: values may come before it.

Legend:
Alpha fetoprotein [1] = target: Alpha fetoprotein (UniProt P02771); assay: anti-AFP capture beads, flow cytometry; AFP 100.0 ng/mL, anti-hCG probe
[2] = target: Human chorionic gonadotropin (human) (UniProt P01215); assay: MAB602 capture beads, flow cytometry; hCG 1.0 ng/mL, anti-hCG probe
Chain of UniProt P01215 (P01215 25-116, chain 1 of 2, other chains not shown): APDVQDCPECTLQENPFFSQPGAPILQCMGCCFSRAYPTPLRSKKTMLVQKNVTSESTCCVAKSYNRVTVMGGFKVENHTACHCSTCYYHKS

[3] = target: Human chorionic gonadotropin (human) (UniProt P01215); assay: sandwich, MAB602 capture beads, flow cytometry; hCG 20 ng/mL
[4] = target: Human chorionic gonadotropin (human) (UniProt P01215); assay: multiplex sandwich, MAB602 capture beads; hCG 2000 ng/mL, washed
[5] = target: Human chorionic gonadotropin (human) (UniProt P01215); assay: multiplex sandwich, MAB602 capture beads; hCG 250 ng/mL, washed
[6] = target: Human chorionic gonadotropin (human) (UniProt P01215); assay: MAB602 capture beads, flow cytometry; hCG 0.1 ng/mL, anti-hCG probe
[7] = target: Human chorionic gonadotropin (human) (UniProt P01215); assay: multiplex sandwich, MAB602 capture beads; hCG 0 ng/mL, no wash
[8] = target: Human chorionic gonadotropin (human) (UniProt P01215); assay: sandwich, MAB602 capture beads, flow cytometry; hCG 0.02 ng/mL
[9] = target: Human chorionic gonadotropin (human) (UniProt P01215); assay: multiplex sandwich, MAB602 capture beads; hCG 31 ng/mL, washed
[10] = target: Human chorionic gonadotropin (human) (UniProt P01215); assay: MAB602 capture beads, flow cytometry; hCG 10.0 ng/mL, anti-hCG probe
Alpha fetoprotein [11] = target: Alpha fetoprotein (UniProt P02771); assay: multiplex sandwich, S10473 capture beads; AFP 2 ng/mL, no wash
Alpha fetoprotein [12] = target: Alpha fetoprotein (UniProt P02771); assay: anti-AFP capture beads, flow cytometry; AFP 0.1 ng/mL, anti-AFP probe
Alpha fetoprotein [13] = target: Alpha fetoprotein (UniProt P02771); assay: multiplex sandwich, S10473 capture beads; AFP 31 ng/mL, no wash
Alpha fetoprotein [14] = target: Alpha fetoprotein (UniProt P02771); assay: multiplex sandwich, S10473 capture beads; AFP 500 ng/mL, washed
Alpha fetoprotein [15] = target: Alpha fetoprotein (UniProt P02771); assay: multiplex no-wash sandwich, S10473 beads; Negative serum, AFP 2 U/mL
Alpha fetoprotein [16] = target: Alpha fetoprotein (UniProt P02771); assay: multiplex sandwich, S10473 capture beads; AFP 0 ng/mL, washed
[17] = target: Neutravidin (deglycosylated avidin) (UniProt P02701); assay: multiplex, Neutravidin bead 70/50 without peptide, flow cytometry
Chain of UniProt P02701 (P02701 25-152 limits assumed): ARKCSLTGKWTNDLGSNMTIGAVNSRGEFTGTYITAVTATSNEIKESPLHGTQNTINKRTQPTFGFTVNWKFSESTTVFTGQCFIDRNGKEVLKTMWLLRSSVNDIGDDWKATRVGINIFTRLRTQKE

[18] = target: Neutravidin (deglycosylated avidin) (UniProt P02701); assay: multiplex, Neutravidin bead 70/40 without peptide, flow cytometry

Chain of UniProt P02771 (P02771 19-609 limits assumed): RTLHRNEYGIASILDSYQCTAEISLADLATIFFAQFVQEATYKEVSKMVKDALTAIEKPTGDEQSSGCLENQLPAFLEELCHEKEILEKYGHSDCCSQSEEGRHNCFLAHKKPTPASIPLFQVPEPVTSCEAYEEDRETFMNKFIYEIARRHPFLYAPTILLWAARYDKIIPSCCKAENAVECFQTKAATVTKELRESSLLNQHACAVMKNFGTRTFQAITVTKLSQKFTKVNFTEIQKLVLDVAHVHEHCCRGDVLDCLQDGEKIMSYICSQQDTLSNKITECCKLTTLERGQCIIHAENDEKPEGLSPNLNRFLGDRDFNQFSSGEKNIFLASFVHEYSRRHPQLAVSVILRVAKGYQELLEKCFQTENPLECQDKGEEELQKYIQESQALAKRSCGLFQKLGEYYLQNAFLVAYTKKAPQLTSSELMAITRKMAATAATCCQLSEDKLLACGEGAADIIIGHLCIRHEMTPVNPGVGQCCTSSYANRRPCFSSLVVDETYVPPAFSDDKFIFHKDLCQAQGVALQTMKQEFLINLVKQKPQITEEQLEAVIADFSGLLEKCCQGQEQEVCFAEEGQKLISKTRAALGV

MIF of Fm (Alpha fetoprotein [1]): 75
MIF of Fm [2]: 104
MIF of Fm [3]: 8500 and 8660
MIF of Fm [4]: 3190
MIF of Fm [5]: 2760
MIF of Fm [6]: 55
MIF of Fm [7]: 15
MIF of Fm [8]: 120 and 147
MIF of Fm [9]: 3180
MIF of Fm [10]: 530
Substance: AB633 affinity purified polyclonal anti-hCG antibody, Bodipy FL-CASE labeled

MIF of Fm (Alpha fetoprotein [11]): 51
MIF of Fm (Alpha fetoprotein [12]): 44
MIF of Fm (Alpha fetoprotein [13]): 639
MIF of Fm (Alpha fetoprotein [14]): 1380
MIF AVG (Alpha fetoprotein [15]): 12.3
MIF of FL1 (Alpha fetoprotein [15]): 11 and 13
MIF of Fm (Alpha fetoprotein [16]): 13
Substance: M20077 affinity purified polyclonal anti-AFP antibody, Bodipy FL-CASE labeled

MIF of Fm [17]: 28
MIF of Fm [18]: 21
Substance: MAB 384, Bodipy FL-X labeled (antibody)
